System: R4Al (R4_AL) retrotransposase (Ascaris lumbricoides)
Assay: cell_activity
Settings: ddPCR 3' junction, HEK293T, plasmid cis

Substance: human rDNA R4 target site
- activity (copies/genome): 0.085

From patent US20200109398
